Data on 3 substances can be found in PMC6735628.

Assay [1] concerns the target native LIC11711 (L. interrogans serovar Copenhageni (endogenous in strain M20)). The assay can be described thus: western blot of cell extracts; L. interrogans M20 cells treated with proteinase K for 0, 1 and 3 h, extracts blotted and probed with antiserum against rLIC11711.
The target in assay [2] is complement component C7 (human) (UniProt P10643). The assay can be described thus: ELISA; dose-response: 1 ug host component or BSA coated, increasing recombinant protein (0-20 uM); HRP anti-His MAb; KD by non-linear regression in GraphPad Prism 6. For orientation: In an ELISA, binding on a coated surface is turned into a signal by an enzyme label.
Assay [3] concerns the target complement component C8 (human) (UniProt P07357). Described as above.
Assay [4] deals with complement component C9 (human) (UniProt P02748). The assay is described as above.
The next assay addresses vitronectin (human). The assay can be described thus: ELISA; vitronectin (250 ng/well) coated, 5 uM recombinant protein plus increasing heparin, 2 h at 37 C; HRP anti-His MAbs.
The target of the next assay is E-cadherin (UniProt P12830). The assay is described as follows: ELISA; dose-response: 1 ug host component or BSA coated, increasing recombinant protein (0-20 uM); HRP anti-His MAb; KD by non-linear regression in GraphPad Prism 6.
Assay [5] addresses recombinant protein LIC11711 (L. interrogans serovar Copenhageni (strain M20 genomic DNA)). The assay is described as follows: non-reducing SDS-PAGE with western blot; purified recombinant proteins, non-reducing against reducing treatment (beta-mercaptoethanol and heating at 96 C); probed with anti-His MAbs or polyclonal antisera.
In a further assay the target is plasminogen (human). The assay can be described thus: ELISA; time course: 1 ug PLG coated, 1 ug recombinant protein for 5, 15, 30, 60 and 120 min; anti-His MAbs; percent of the 120 min value.

Sequence of UniProt P10643 (P10643 23-843): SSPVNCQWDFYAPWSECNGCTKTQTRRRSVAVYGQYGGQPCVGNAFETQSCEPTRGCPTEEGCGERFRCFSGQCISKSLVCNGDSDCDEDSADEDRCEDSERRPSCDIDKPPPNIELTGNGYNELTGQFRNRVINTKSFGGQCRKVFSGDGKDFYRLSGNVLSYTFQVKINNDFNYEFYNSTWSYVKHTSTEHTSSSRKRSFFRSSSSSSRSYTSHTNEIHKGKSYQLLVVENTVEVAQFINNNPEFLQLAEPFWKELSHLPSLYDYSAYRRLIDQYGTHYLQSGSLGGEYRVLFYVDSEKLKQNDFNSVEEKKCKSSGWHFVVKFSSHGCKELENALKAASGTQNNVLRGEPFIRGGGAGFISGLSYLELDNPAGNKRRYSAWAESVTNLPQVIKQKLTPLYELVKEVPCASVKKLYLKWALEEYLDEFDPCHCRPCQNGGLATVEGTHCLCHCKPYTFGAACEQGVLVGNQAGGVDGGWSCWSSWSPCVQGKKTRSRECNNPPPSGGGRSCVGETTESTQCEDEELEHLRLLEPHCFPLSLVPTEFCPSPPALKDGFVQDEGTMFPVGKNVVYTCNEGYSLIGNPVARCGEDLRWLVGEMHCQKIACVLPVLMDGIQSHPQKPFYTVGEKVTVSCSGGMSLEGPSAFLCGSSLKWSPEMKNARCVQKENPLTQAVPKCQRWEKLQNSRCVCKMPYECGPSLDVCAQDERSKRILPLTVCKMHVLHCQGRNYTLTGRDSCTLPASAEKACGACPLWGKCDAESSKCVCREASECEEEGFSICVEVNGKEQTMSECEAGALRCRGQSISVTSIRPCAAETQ
Sequence of UniProt P02748 (P02748 22-559): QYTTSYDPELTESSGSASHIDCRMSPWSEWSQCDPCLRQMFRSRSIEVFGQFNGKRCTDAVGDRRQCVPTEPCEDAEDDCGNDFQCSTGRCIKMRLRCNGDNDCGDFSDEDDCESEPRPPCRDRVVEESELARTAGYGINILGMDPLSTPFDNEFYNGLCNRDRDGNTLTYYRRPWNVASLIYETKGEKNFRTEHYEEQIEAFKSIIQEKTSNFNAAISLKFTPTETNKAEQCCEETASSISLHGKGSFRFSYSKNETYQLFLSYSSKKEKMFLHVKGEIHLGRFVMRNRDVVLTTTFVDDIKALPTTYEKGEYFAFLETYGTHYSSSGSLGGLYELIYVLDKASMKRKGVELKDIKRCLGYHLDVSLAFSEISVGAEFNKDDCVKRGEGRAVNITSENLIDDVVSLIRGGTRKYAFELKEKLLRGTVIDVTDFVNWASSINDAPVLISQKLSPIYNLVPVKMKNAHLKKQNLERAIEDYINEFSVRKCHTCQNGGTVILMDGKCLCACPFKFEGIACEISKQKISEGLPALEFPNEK
Sequence of UniProt P07357 (P07357 31-584, chain 1 of 3): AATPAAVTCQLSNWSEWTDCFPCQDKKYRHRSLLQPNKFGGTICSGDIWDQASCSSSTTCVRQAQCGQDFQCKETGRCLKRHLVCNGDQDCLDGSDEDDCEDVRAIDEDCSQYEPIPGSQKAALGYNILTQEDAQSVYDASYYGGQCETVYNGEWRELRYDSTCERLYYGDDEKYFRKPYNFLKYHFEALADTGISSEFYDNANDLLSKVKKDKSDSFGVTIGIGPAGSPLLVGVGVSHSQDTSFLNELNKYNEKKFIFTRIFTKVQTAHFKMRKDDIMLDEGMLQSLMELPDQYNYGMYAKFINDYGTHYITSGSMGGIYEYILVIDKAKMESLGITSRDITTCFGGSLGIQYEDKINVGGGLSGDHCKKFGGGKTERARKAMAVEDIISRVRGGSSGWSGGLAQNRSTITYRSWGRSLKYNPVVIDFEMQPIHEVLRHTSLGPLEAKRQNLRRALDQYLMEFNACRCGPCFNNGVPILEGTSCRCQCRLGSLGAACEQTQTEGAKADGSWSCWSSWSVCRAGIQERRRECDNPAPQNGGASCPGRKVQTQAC
Sequence of UniProt P07357 (P07358 55-591, chain 2 of 3, further chain): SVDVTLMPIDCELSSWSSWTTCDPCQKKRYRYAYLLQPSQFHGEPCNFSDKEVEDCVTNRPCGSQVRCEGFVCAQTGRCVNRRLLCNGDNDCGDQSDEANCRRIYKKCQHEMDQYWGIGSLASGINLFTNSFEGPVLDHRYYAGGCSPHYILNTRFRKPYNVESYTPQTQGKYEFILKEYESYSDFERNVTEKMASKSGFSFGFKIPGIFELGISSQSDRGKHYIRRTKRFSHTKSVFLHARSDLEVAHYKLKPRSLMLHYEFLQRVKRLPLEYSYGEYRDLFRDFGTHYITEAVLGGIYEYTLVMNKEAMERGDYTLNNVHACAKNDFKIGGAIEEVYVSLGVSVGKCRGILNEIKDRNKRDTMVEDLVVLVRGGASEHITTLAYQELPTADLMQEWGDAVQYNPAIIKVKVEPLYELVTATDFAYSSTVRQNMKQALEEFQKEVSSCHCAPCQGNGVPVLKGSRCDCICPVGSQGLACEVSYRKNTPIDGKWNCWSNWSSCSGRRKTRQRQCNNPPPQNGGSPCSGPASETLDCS
Sequence of UniProt P07357 (P07360 21-202, chain 3 of 3, further chain): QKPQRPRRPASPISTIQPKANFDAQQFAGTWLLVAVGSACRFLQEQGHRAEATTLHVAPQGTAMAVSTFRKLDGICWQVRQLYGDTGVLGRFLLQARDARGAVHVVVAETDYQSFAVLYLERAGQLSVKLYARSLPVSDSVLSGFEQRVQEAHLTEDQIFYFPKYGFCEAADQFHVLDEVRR

The substance native LIC11711 (natural protein) registered a stoichiometry N in assay [1] of 2.
Regarding “recombinant protein LIC12587 (natural protein)”, the Kd in assay [2] came to 1.95 µM; in assay [3], 0.47 µM; in assay [4], 0.63 µM. The percent reduction of binding with 10 ug/well heparin in the assay with vitronectin (human) is 10%. Further, in the assay with vitronectin (human), the percent reduction of binding with 100 ug/well heparin was determined as 51%.
Turning to “recombinant protein LIC11711 (natural protein)”, the Kd in the assay with E-cadherin amounted to 3.82 µM. In addition, the stoichiometry N in assay [5] is 2. Moreover, the percent of the maximal binding (2 h) reached at 5 min with plasminogen (human) is 40%. In addition, in the assay with vitronectin (human), the percent reduction of binding with 10 ug/well heparin worked out at 40% and the percent reduction of binding with 100 ug/well heparin stood at 54%.

As usually defined, the stoichiometry N is a count of units in the complex or per binding partner. What is called Kd is a measure of binding affinity in units of concentration.
